No end group written: not given here.
How the values were obtained:
[1] = Circular dichroism secondary structure (Dichroweb), peptide only; type: physicochemical; details: 20 °C
Description: (§1) Dichroweb software analyzes the secondary structure of LDKA peptides from circular dichroism spectroscope. The table presents the percentage of each helix and strand structure at different temperature. The data are analyzed using CONTIN-LL method and Reference Set 4 (Optimised for 190-240 nm).
(§2) Peptide solutions (peptide concentration is 50 μM) were titrated with POPC and POPG LUVs (50, 100, 250, 500, 1000 μM) and the corresponding changes CD spectra collected. Analysis of these spectra using CD tools and Dichroweb provides an ensemble average of the changes in secondary structure in the presence of POPC and POPG LUVs (dichroweb.cryst.bbk.ac.uk), which gives a direct measure of the binding free energies for each peptide.

[2] = Circular dichroism secondary structure (Dichroweb), with POPC; type: physicochemical
Description: as §1, §2

[3] = Circular dichroism secondary structure (Dichroweb), with POPG; type: physicochemical
Description: as §1, §2

[4] = ANTS/DPX leakage assay, POPC; type: biochemical; details: P:L = 1:1000, pH 7 phosphate buffer
Description: (§3) 5 mM ANTS and 12.5 mM DPX were entrapped in 0.1 μm diameter extruded vesicles with lipids. Gel filtration chromatography of Sephadex G-100 (GE Healthcare Life Sciences Inc.) was used to remove external free ANTS/DPX from LUVs with entrapped contents. […] Leakage was measured after 3 hr incubation. 10% Triton was used as the positive control to measure the maximum leakage of the vesicle. Fluorescence emission spectra were recorded using excitation wavelength (Ex: 350 nm) and emission wavelength (Em: 510 nm) for ANTS/DPX using Synergy H1 Hybrid Multi-Mode Reader.
(§4) This detects and quantifies the release of a small fluorescent dye (ANTS/DPX; MW=˜400 Da) encapsulated in LUVs after addition of library peptides. Neutral POPC LUVs serve as a simple model for mammalian membranes, while charged POPG LUVs mimic bacterial membranes enriched in anionic lipids.

[5] = ANTS/DPX leakage assay, POPG; type: biochemical; details: P:L = 1:1000, pH 7 phosphate buffer
Description: as §3, §4

[6] = 3-kDa dextran macromolecule release assay, POPG; type: biochemical; details: P:L = 1:1000, pH 7 phosphate buffer
[7] = Pore-size characterization by 3-kDa dextran release; type: biochemical; details: ‡Large pore for PG only
From the text: Eight LDKA peptides with different lipid selectivity and pore sizes were selected from the high-throughput screen and sequenced. […] The most common mutation is L to A, occurred 13 times and in 7 out of the 8 peptides, followed by A to L, which occurred 6 times in 5 peptides, L to D which occurred 3 times in 3 peptides, and L to P that occurred once. Lysine (K) is not favorable to be shown at the position 6, 8, 10, 12, and 13, which is the non-polar face of the helical structure. […] More specifically, the analogs only induce leakage from anionic POPG vesicles have 4-5 leucines, which is less than the analogs that can porate both POPC and POPG vesicles and have 6-7 leucines in their sequences.

[8] = Membrane selectivity from high-throughput dye leakage screen; type: biochemical; details: PC = POPC, PG = POPG
From the text: as §4

[9] = test system: S. aureus; test: Bacterial minimum inhibitory concentration (MIC), S. aureus; type: cell-based, Staphylococcus aureus; details: 75 μM maximum tested; NDA = not determinable
Description: (§5) Escherichia colt strain ATCC 25922, Staphylococcus aureus strain ATCC 25923, and Pseudomonas aeruginosa strain ATCC PAO1 were used in this study. Overnight cultures were subcultured to log phase (OD600=0.3-0.6) after which cell counts were determined by measuring the OD600 (OD600 1.0=1.5×10^8 CFU/mL for S. aureus, 5×10^8 CFU/mL for E. colt, and 2.04×10^8 CFU/mL for P. aeruginosa). Bacteria in minimal media mere added to serially diluted peptides and incubated for 3 hr, followed by the addition of full growth media. After overnight incubation, the optical density of the wells was recorded on a plate reader to determine whether they were sterilized (OD<0.08) or were at stationary phase growth (OD600>0.5). Intermediate values, which were rare, were considered positive for growth. Average minimum sterilizing concentrations were calculated from the lowest peptide concentration that sterilized the bacteria in each serial dilution. The samples were done in sextuplet.

[10] = test system: methicillin-resistant Staphylococcus aureus (MRSA); type: cell-based; details: 75 μM maximum tested; NDA = not determinable
[11] = test system: P. aeruginosa; test: Bacterial minimum inhibitory concentration (MIC), P. aeruginosa; type: cell-based, Pseudomonas aeruginosa; details: 75 μM maximum tested; NDA = not determinable
Description: as §5

[12] = Tryptophan fluorescent binding assay
From the text: To further investigate why some peptides (i.e. 7D12, 7G6, 11D12, 24F1, and 28H6) show selectivity for membrane types we measured peptide binding and secondary structural changes to vesicles containing binary mixtures of POPC and POPG lipids. FIGS. 10a-10e show the changes in the CD and tryptophan fluorescence spectra for these peptides upon addition of LUVs for whom the ratio of POPG was elevated from 0 to 100%. […] Consistent with the POPC/POPG leakage assay, these lipid selective peptides show little or no binding to POPC, which bind strongly to POPG. […] All other peptides have tryptophan fluorescence peaks around 350 nm, indicative of monomeric peptides. Addition of LUVs to 28H6 results in higher intensity and smaller width of the peak indicative of membrane binding. Remarkably, the CD spectra of 28H6 change from a helical aggregate in solution or POPC LUVs, to beta-strand conformations in the presence of anionic POPG lipids. Increasing the temperature of 28H6 with POPG vesicles can destabilize the beta-strand structure and reverse it to helix as the conformation of 28H6 with POPC (Table 8).

[13] = pH 7.1; cited from earlier work

In the case of “GLLDDAKLLAKLAGW-AMIDE (GLLDDAKLLAKLAGW-NH2) [Peptide 7D12]”, the “Peptide-only, Strand” value [1] is reported as 11%, the “Peptide-POPC, Helix” value ([2]; 20 °C) is reported as 30% and the “Peptide-POPC, Strand” value ([2]; 20 °C) is reported as 20%. For the same substance, the “Peptide-POPC, Helix” value ([2]; 45 °C) was 26%, the “Peptide-POPC, Strand” value ([2]; 45 °C) was 21% and the “Peptide-POPC, Helix” value ([2]; 70 °C) was 27%. The “Peptide-POPC, Strand” value ([2]; 70 °C) was 22%, the “Peptide-POPC, Helix” value ([2]; 95 °C) was 22% and the “Peptide-POPC, Strand” value ([2]; 95 °C) was 24%. For the same substance, the “Peptide-POPG, Helix” value ([3]; 20 °C) was 78%, the “Peptide-POPG, Strand” value ([3]; 20 °C) was 2% and the “Peptide-POPG, Helix” value ([3]; 45 °C) was 66%. For the same substance, the “Peptide-POPG, Strand” value ([3]; 45 °C) was 3%, the “Peptide-POPG, Helix” value ([3]; 70 °C) was 48% and the “Peptide-POPG, Strand” value ([3]; 70 °C) was 6%. For the same substance, the “Peptide-POPG, Helix” value ([3]; 95 °C) was 31%, the “Peptide-POPG, Strand” value ([3]; 95 °C) was 13% and the “ANTS/DPX release, POPC” value [4] was 6%. For the same substance, the “ANTS/DPX release, POPG” value [5] was 103%, the “3-kDa Dextran release, POPG” value [6] was 17% and the Pore size [7] was “Small”. The “Membrane selectivity (POPC vs POPG vesicles)” value [8] was “PG > PC”, the “Minimum Inhibitory Concentration, S. aureus” value [9] was “no activity and NDA” and the “Minimum Inhibitory Concentration, MRSA” value [10] was “NDA”. For the same substance, the “Minimum Inhibitory Concentration, P. aeruginosa” value [11] was “no activity and NDA”, the “Binding onto POPC” value [12] was “does not bind” and the “Solubility, DPBS pH 7.1” value [13] was under 0.1 mg/mL.

Source: patent US11059855B2, “Antimicrobial peptides and methods of making and using same” (priority 2017, dated 2021)
